Experiment [1] deals with T1, human CD47 protein on the cell surface (human, UniProt Q08722 19-323).
T1 construct: whole, on cells; One molecule is used for overexpressed (CHO-K1) and endogenous (Raji, Toledo, REC-1, red blood cells) human CD47; the cell is named under assay; also called CD47 on the surface of Raji, Toledo, REC-1 cells; CD47 on the surface of human red blood cells
As to the kind of experiment: FACS on REC-1 cells (endogenous human CD47); negative control.

Experiment [2] deals with T1, human CD47 protein on the cell surface. As to the kind of experiment: FACS on Raji cells (endogenous human CD47); negative control.
Experiment [3] has the same target. As to the kind of experiment: FACS on Toledo cells (endogenous human CD47); negative control.
Experiment [4] addresses CD47 on the surface of cynomolgus monkey B cells (cynomolgus monkey). As to the kind of experiment: FACS on cynomolgus monkey B cells, antibody 66.7 nM; negative control.
Experiment [5] deals with T2, CD47 on the surface of cynomolgus monkey B cells (cynomolgus monkey, UniProt A0A5F8AK49 19-323 (rhesus entry)).
T2 construct: whole, on cells; also called cynomolgus monkey CD47
As to the kind of experiment: FACS on cynomolgus monkey B cells, antibody 66.7 nM.
Source text: The cells were washed three times and analyzed by flow cytometry.

Experiment [6] addresses T3, recombinant protein hCD47-Fc containing the extracellular domain of human CD47 fused with the Fc fragment of … (human, UniProt Q08722 19-139).
T3 construct: extracellular domain; Bought reagent; also called ACROBiosystems Cat: CD7-H5256; not shown: Fc fragment of human IgG
As to the kind of experiment: competition ELISA: hCD47-Fc coated, SIRPα-His 2.5 µg/ml as competitor ligand, anti-His-HRP. A general note: ELISA stands for enzyme-linked immunosorbent assay.

Experiment [7] deals with T1, human CD47 protein on the cell surface. As to the kind of experiment: FACS on CHO-K1 cells overexpressing human CD47.
Procedure: A human CD47 protein (NCBI accession number: NP_001768.1) was overexpressed in hamster ovary cell line CHO-K1 to establish CHO-K1 cell line overexpressing the human CD47 protein. […] After washing twice with iced PBS, the cells were incubated with an iFluor647-labeled goat anti-mouse IgG (H+L) antibody (Genscript) at 4° C. in the dark for 40 minutes. The cells were washed twice with iced PBS, and then the fluorescence signal was detected by Calibur (BD Biosciences) flow cytometry, and according to the average fluorescence intensity (MFI) of the signal, GraphPad was used for fitting a concentration dependent curve, and the EC₅₀ was calculated.
Experiment [8] has the same target. As to the kind of experiment: FACS on Raji cells (endogenous human CD47), n = 3.
Procedure: (§1) Human CD47 was endogenously expressed on the cell surface of human Burkitt lymphoma cell line Raji. […] The diluted antibodies were mixed with and co-incubated with Raji cells (purchased from ATCC) (5*10⁵ cells/well) at 4° C. for 1 hour. […] The cells were washed three times with PBS containing 2% fetal bovine serum (FBS), and then the fluorescence signal was detected by CantoII (BD Biosciences) flow cytometry, and according to the average fluorescence intensity (MFI) of the signal, GraphPad was used for fitting a concentration dependent curve, and the EC₅₀ was calculated.
The target is the same in experiment [9]. As to the kind of experiment: FACS on Raji cells (endogenous human CD47).
Procedure: as §1
The target is the same in experiment [10]. As to the kind of experiment: FACS on human red blood cells (endogenous CD47).
Procedure: The cells were washed three times with PBS containing 2% fetal bovine serum (FBS), and then the fluorescence signal was detected by Canto II (BD Biosciences) flow cytometry. According to the average fluorescence intensity (MFI) of the signal, GraphPad was used for fitting a concentration dependent curve, and the EC₅₀ was calculated.
Experiment [11] shares this target. As to the kind of experiment: FACS on REC-1 cells (endogenous human CD47).
Procedure: as §1
Experiment [12] deals with T3, recombinant protein hCD47-Fc containing …. As to the kind of experiment: competition ELISA as in Example 1.3: hCD47-Fc coated, SIRPα-His as competitor ligand, anti-His-HRP.
Procedure: The recombinant protein hCD47-Fc containing the extracellular domain of human CD47 fused with the Fc fragment of human IgG (ACROBiosystems, Cat: CD7-H5256) was coated onto a 96-well plate and incubated overnight at 4° C. After the plate was washed 3 times with PBST (PBS containing 0.5% Tween-20), PBST containing 1% BSA was added for blocking the plate for 2 hours. […] After the 96-well plate was incubated at 37° C. for 30 minutes, the plate was washed 5 times with PBST, and a TMD (Surmodics, Cat: TMBW-1000-01) developing solution was added, and was incubated in the dark for 15 minutes. 2N H₂SO₄ was added to terminate the color-developing reaction. OD₄₅₀ was read on a microplate reader.
Experiment [13] addresses T1, human CD47 protein on the cell surface. As to the kind of experiment: FACS on Toledo cells (endogenous human CD47).
Procedure: as §1
For experiment [14], the target named is T4, human CD47-His fusion protein (human, UniProt Q08722 19-139).
T4 construct: Bought reagent; also called ACROBiosystems Cat: CD7-H5227; not shown: His tag
As to the kind of experiment: SPR (Biacore T200): antibody captured by anti-human Fc on CM5, human CD47-His as analyte, 1:1 Langmuir fit. Background: SPR reads the build-up and loss of mass on a sensor chip optically.

This note sets out measurements from patent US20230151110A1 (HUTCHISON MEDIPHARMA, published 2023).

As to “negative isotype control antibody (isotype), human IgG4P”, the Max MFI in experiment [1] stood at 265 MFI; in [2] it was 175 MFI; in experiment [3], 50 MFI; in experiment [4] it was 53 MFI.

B1: control antibody Hu5F9 (antibody, V domains shown)
VH: QVQLVQSGAEVKKPGASVKVSCKASGYTFTNYNMHWVRQAPGQRLEWMGTIYPGNDDTSYNQKFKDRVTITADTSASTAYMELSSLRSEDTAVYYCARGGYRAMDYWGQGTLVTVSS
VL: DIVMTQSPLSLPVTPGEPASISCRSSQSIVYSNGNTYLGWYLQKPGQSPQLLIYKVSNRFSGVPDRFSGSGSGTDFTLKISRVEAEDVGVYYCFQGSHVPYTFGQGTKLEIK
As to B1, in [5], the “Max MFI” value was found to be 4120 MFI and the “Max MFI compared with Ch-125G4m-m35 value, %” value (shortened to “Max MFI … %”) is 90%.

B2: chimeric antibody Ch-125G4-m35 (antibody, V domains shown)
VH: QVQLQQSGTELAKPGASVKMSCKASGYTFTSYYMHWVKQRPGQILEWIGYIDPANDYSDYNQNFKDKATLTADKSSRTTYMQLTSLTSEDSAVYYCARLGYGQSSPFDYWGQGTTLIVSS
VL: DIKMTQSPSSMYASVGERVTITCKASQDIHNYLSWFQQKPGKSPKTLIYRAKRLVEGVPLRFSGSGSGQDYSLTISSLEYEDMGIYFCLQYDELYTFGGGTRLEIK
notes: Chimeric antibody with human IgG4 (S228P) heavy chain constant region and human kappa light chain constant region; PTM sites mutated (NSS to QSS in the heavy chain, DG to EG in the light chain); also called Ch-125G4m-m35; 125G4A4m
As to B2, in experiment [5], the “Max MFI” value amounted to 4550 MFI and the “Max MFI … %” value came to 100%.

B3: hybridoma-derived antibody 125G4A4 (antibody, V domains shown)
VH: QVQLQQSGTELAKPGASVKMSCKASGYTFTSYYMHWVKQRPGQILEWIGYIDPANDYSDYNQNFKDKATLTADKSSRTTYMQLTSLTSEDSAVYYCARLGYGNSSPFDYWGQGTTLIVSS
VL: DIKMTQSPSSMYASVGERVTITCKASQDIHNYLSWFQQKPGKSPKTLIYRAKRLVDGVPLRFSGSGSGQDYSLTISSLEYEDMGIYFCLQYDELYTFGGGTRLEIK
notes: Mouse antibody purified from hybridoma supernatant on Protein A
As for B3, the IC50 (usually the concentration that gives 50% inhibition) in experiment [6] stood at 3.06 nM. For the same molecule, the EC50 (in general, the concentration at which the effect is half-maximal) in [7] was determined as 0.22 nM; in experiment [8], 0.84 nM.

B4: Hu-125G4A4m-43 (antibody, V domains shown)
VH: QVQLVQSGAEVKKPGSSVKVSCKASGYTFTSYYMHWVRQAPGQGLEWMGYIDPANDYSDYNQNFKDRVTITADKSTRTTYMELTSLRSEDTAVYYCARLGYGQSSPFDYWGQGTTVTVSS
VL: DIQMTQSPSSLSASVGDRVTITCKASQDIHNYLSWFQQKPGKAPKSLIYRAKRLVEGVPSRFSGSGSGQDYTLTISSLQPEDFATYYCLQYDELYTFGQGTRLEIK
notes: Humanized antibody, IgG4 S228P (IgG4P) subtype
Turning to B4, in experiment [5], the “Max MFI” value is 3260 MFI and the “Max MFI … %” value came out at 72%.

B5: Hu-125G4A4m-46 (antibody, V domains shown)
VH: QVQLVQSGAEVKKPGSSVKVSCKASGYTFTSYYMHWVRQAPGQGLEWMGYIDPANDYSDYNQNFKDRVTITADKSTRTAYMELTSLRSEDTAVYYCARLGYGQSSPFDYWGQGTTVTVSS
VL: DIQMTQSPSSLSASVGDRVTITCKASQDIHNYLSWFQQKPGKAPKSLIYRAKRLVEGVPSRFSGSGSGQDYTLTISSLQPEDFATYYCLQYDELYTFGQGTRLEIK
notes: as for B4
As for B5, in [5], the “Max MFI” value is 2520 MFI and the “Max MFI … %” value was determined as 55%.

B6: Hu-125G4A4m-45 (antibody, V domains shown)
VH: QVQLVQSGAEVKKPGSSVKVSCKASGYTFTSYYMHWVRQAPGQGLEWMGYIDPANDYSDYNQNFKDRVTITADKSTRTAYMELTSLRSEDTAVYYCARLGYGQSSPFDYWGQGTTVTVSS
VL: DIQMTQSPSSLSASVGDRVTITCKASQDIHNYLSWFQQKPGKAPKSLIYRAKRLVEGVPSRFSGSGSGTDYTLTISSLQPEDFATYYCLQYDELYTFGQGTRLEIK
notes: as for B4
In the case of B6, in experiment [5], the “Max MFI” value was 2630 MFI and the “Max MFI … %” value came out at 58%.

B7: Hu-125G4A4m-50 (antibody, V domains shown)
VH: QVQLVQSGAEVKKPGSSVKVSCKASGYTFTSYYMHWVRQAPGQGLEWMGYIDPANDYSDYNQNFKDRATLTADKSTRTTYMELTSLRSEDTAVYYCARLGYGQSSPFDYWGQGTTVTVSS
VL: DIKMTQSPSSLSASVGDRVTITCKASQDIHNYLSWFQQKPGKAPKTLIYRAKRLVEGVPLRFSGSGSGQDYTLTISSLQPEDFATYFCLQYDELYTFGQGTRLEIK
notes: as for B4
Consider B7, for which, in experiment [5], the “Max MFI” value was determined as 4840 MFI and the “Max MFI … %” value was determined as 106%.

B8: Hu-125G4A4m-44 (antibody, V domains shown)
VH: QVQLVQSGAEVKKPGSSVKVSCKASGYTFTSYYMHWVRQAPGQGLEWMGYIDPANDYSDYNQNFKDRVTITADKSTRTTYMELTSLRSEDTAVYYCARLGYGQSSPFDYWGQGTTVTVSS
VL: DIKMTQSPSSLSASVGDRVTITCKASQDIHNYLSWFQQKPGKAPKTLIYRAKRLVEGVPLRFSGSGSGQDYTLTISSLQPEDFATYFCLQYDELYTFGQGTRLEIK
notes: as for B4
Take B8: in experiment [5], the “Max MFI” value was determined as 4510 MFI and the “Max MFI … %” value was 99%.

B9: Hu-125G4A4m-49 (antibody, V domains shown)
VH: QVQLVQSGAEVKKPGSSVKVSCKASGYTFTSYYMHWVRQAPGQGLEWMGYIDPANDYSDYNQNFKDRATLTADKSTRTTYMELTSLRSEDTAVYYCARLGYGQSSPFDYWGQGTTVTVSS
VL: DIQMTQSPSSLSASVGDRVTITCKASQDIHNYLSWFQQKPGKAPKSLIYRAKRLVEGVPSRFSGSGSGQDYTLTISSLQPEDFATYYCLQYDELYTFGQGTRLEIK
notes: as for B4
As to B9, in [5], the “Max MFI” value was 4080 MFI and the “Max MFI … %” value was determined as 90%.

B10: humanized antibody HMA02h14-48 (antibody, V domains shown)
VH: QVQLVQSGAEVKKPGSSVKVSCKASGYTFTSYYMHWVRQAPGQGLEWMGYIDPANDYSDYNQNFKDRATLTADKSTRTTYMELTSLRSEDTAVYYCARLGYGQSSPFDYWGQGTTVTVSS
VL: DIQMTQSPSSLSASVGDRVTITCKASQDIHNYLSWFQQKPGKAPKSLIYRAKRLVEGVPSRFSGSGSGTDYTLTISSLQPEDFATYYCLQYDELYTFGQGTRLEIK
notes: Humanized antibody, IgG4 S228P (IgG4P) subtype; also called Hu-125G4A4m-48; Hu-125G4A4-48
Consider B10, for which the EC50 in experiment [9] is 1.2 nM; in [10], 3.9 nM; in experiment [11], 0.6 nM; in experiment [13] it was 2.2 nM. Besides, the IC50 in experiment [12] is 1.58 nM. For the same molecule, the Kd (as a rule, the free concentration of one partner at which half of the binding sites on the other are occupied at equilibrium, for simple one-to-one binding) in experiment [14] was determined as 0.777 nM. Moreover, the “Max MFI” value in [5] was found to be 4200 MFI. Moreover, the “Max MFI … %” value in experiment [5] is 92%.

B11: Hu-125G4A4m-47 (antibody, V domains shown)
VH: QVQLVQSGAEVKKPGSSVKVSCKASGYTFTSYYMHWVRQAPGQGLEWMGYIDPANDYSDYNQNFKDRVTITADKSTRTAYMELTSLRSEDTAVYYCARLGYGQSSPFDYWGQGTTVTVSS
VL: DIKMTQSPSSLSASVGDRVTITCKASQDIHNYLSWFQQKPGKAPKTLIYRAKRLVEGVPLRFSGSGSGQDYTLTISSLQPEDFATYFCLQYDELYTFGQGTRLEIK
notes: as for B4
For the molecule B11, in experiment [5], the “Max MFI” value amounted to 4100 MFI and the “Max MFI … %” value is 90%.
